Source: publication PMC5622069
Blank lines part the entries; values can stand above or below the substance they belong to.

Assays:
[1] = target: MnxG (Bacillus sp. PL-12); experiment: native MS; surface-induced dissociation (SID) of the isolated 29+ Mnx complex at a low collision voltage of 40 V, ion mobility-MS; hexamer assigned after removal of most bound copper with EDTA
[2] = target: MnxF (Bacillus sp. PL-12); experiment: as above

stoichiometry N (MnxG per hexamer) [1]: 1
Substance: MnxE3F3 hexamer (complex)

stoichiometry N (MnxE per MnxG) [1]: 3
stoichiometry N (MnxE per MnxF (3:3)) [2]: 1
Substance: MnxE (natural protein)

stoichiometry N (MnxF per MnxG) [1]: 3
Substance: MnxF (natural protein)
